Source: patent US20040048305

How the values were obtained:
[1] = target: T1, peptide 3: Biotin-KKRFSFKKSFKLSGFSFK-COOH
T1 chain: KKRFSFKKSFKLSGFSFK

[2] = target: T2, bovine myelin basic protein (biotinylated MBP, Amersham Biosciences), P02687
T2 chain: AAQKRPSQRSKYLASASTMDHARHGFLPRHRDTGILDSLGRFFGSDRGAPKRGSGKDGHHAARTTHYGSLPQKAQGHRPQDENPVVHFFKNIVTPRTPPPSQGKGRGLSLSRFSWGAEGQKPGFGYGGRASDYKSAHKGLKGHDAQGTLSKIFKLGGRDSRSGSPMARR

B1: GST-14171 fusion protein (glutathione S-transferase fused to the N-terminus of a partial 14171 molecule, amino acid residues 1-350 of SEQ ID NO:2) (protein)
chain: MEGDGGTPWALALLRTFDAGEFTGWEKVGSGGFGQVYKVRHVHWKTWLAIKCSPSLHVDDRERMELLEEAKKMEMAKFRYILPVYGICREPVGLVMEYMETGSLEKLLASEPLPWDLRFRIIHETAVGMNFLHCMAPPLLHLDLKPANILLDAHYHVKISDFGLAKCNGLSHSHDLSMDGLFGTIAYLPPERIREKSRLFDTKHDVYSFAIVIWGVLTQKKPFADEKNILHIMVKVVKGHRPELPPVCRARPRACSHLIRLMQRCWQGDPRVRPTFQEITSETEDLCEKPDDEVKETAHDLDVKSPPEPRSEVVPARLKRASAPTFDNDYSLSELLSQLDSGVSQAVEGP
- counts per minute at the two hour timepoint, 10 nM enzyme, 0.5 uM substrate [1]: about 11,000 cpm
- signal-to-noise ratio at the two hour timepoint, 10 nM enzyme [1]: a signal-to-noise ratio of 9
- substrate phosphorylation, [gamma-33P]ATP, streptavidin SPA beads [1]: weak phosphorylation of the following peptide, named peptide 3
- counts per minute at the two hour timepoint, 10 nM enzyme, 0.5 uM substrate [2]: about 21,000 cpm
- phosphorylation of biotinylated MBP by soluble GST-14171 fusion protein [2]: phosphorylated MBP
- signal-to-noise ratio at the two hour timepoint, 10 nM enzyme [2]: a signal-to-noise ratio of 13
- substrate phosphorylation, [gamma-33P]ATP, streptavidin SPA beads [2]: strong phosphorylation of bovine myelin basic protein
